Experiments:
[1] = molecular target: Pfs25-IMX313 protein-nanoparticle (P. pastoris) (Plasmodium falciparum | chicken) (UniProt P13829); assay: non-reducing SDS-PAGE with western blot; protein purified from P. pastoris supernatant, 500 ng per lane, reduced and non-reduced conditions, detected with anti-Pfs25 mAb 4B7
[2] = molecular target: Pfs25-IMX313 (HEK293 cells, pENTR4-LPTOS shuttle plasmid) (Plasmodium falciparum | chicken) (UniProt P13829); assay: non-reducing SDS-PAGE with western blot; 15 μL supernatant of transfected HEK293 cells per lane, reduced and non-reduced conditions, detected with anti-Pfs25 mAb 4B7

Substance | stoichiometry N [1] | stoichiometry N [2]
Pfs25-IMX313 protein-nanoparticle (P. pastoris) (from UniProt P13829 22-193) | 7 | –
Pfs25-IMX313 (HEK293 cells, pENTR4-LPTOS shuttle plasmid) (from UniProt P13829 22-193) | – | 7
